Experiment [1] concerns the target HA of A/California/04/2009 (H1N1) (influenza A virus (H1N1)) (UniProt P26140). The experiment in a line: ELISA, recombinant HA.
For experiment [2], the target named is HA of A/duck/Czechoslovakia/1956 (H4). The experiment in a line: ELISA, recombinant HA.
Experiment [3] has as its target HA of A/Indonesia/5/2005 (H5N1) (influenza A virus (H5N1)).
The target of experiment [4] is HA of A/Hong Kong/1073/99 (H9) (influenza A virus (H9)).
For experiment [5], the target named is HA of A/shearwater/Western Australia/2576/1979 (H15N9) (influenza A virus (H15N9)).
For experiment [6], the target named is HA of A/Shanghai/2/2013 (H7N9) (influenza A virus (H7N9)).
The target of experiment [7] is HA of A/mallard duck/Astrakhan/263/1982 (H14N5) (influenza A virus (H14N5)).
Experiment [8] addresses HA of A/Netherlands/219/2003 (H7N7) (influenza A virus (H7N7)).
Experiment [9] concerns the target HA of A/Singapore/1/1957 (H2) (influenza A virus (H2)) (UniProt Q67333).
Experiment [10] addresses HA of A/Hong Kong/1/1968 (H3N2) (influenza A virus (H3N2)) (UniProt Q91MA7).

In the case of CR6261 (antibody), the EC50 is 0.012 µg/mL in experiment [1] and 0.023 µg/mL in experiment [2].

For the substance “rFluA-20 heavy chain mutant C101A (antibody)”, the EC50 fold over wild-type rFluA-20 in experiment [3], in experiment [4], in [6] and in [7] was over 100 fold each time. Besides, the EC50 turned out to be 0.11 µg/mL in experiment [5], 0.17 µg/mL in experiment [8], 0.44 µg/mL in experiment [9] and 0.13 µg/mL in experiment [10].

For the substance “rFluA-20 light chain mutant N53A (antibody)”, the EC50 fold over wild-type rFluA-20 in experiment [3] and in experiment [7] was over 100 fold throughout. In addition, the EC50 turned out to be 0.17 µg/mL in experiment [4], 0.06 µg/mL in [5], 0.87 µg/mL in [6] and 0.05 µg/mL in experiment [8].

For the substance “rFluA-20 light chain mutant Q55A (antibody)”, the EC50 fold over wild-type rFluA-20 in [5] was over 100 fold. For the same substance, the EC50 in experiment [8] is 0.17 µg/mL.

For “rFluA-20 light chain mutant Y49A (antibody)”, the EC50 fold over wild-type rFluA-20 in experiment [8] was over 100 fold.

Values taken from patent US20210252150A1.
